Measurements as given in PMC9359109.

Key:
[1] = target: HLA-B*27:05 class I heavy chain (HC), V5 tagged (human); assay: non-reducing two-dimensional isoelectric focusing gel electrophoresis and immunoblot of immunoprecipitates; anti-tapasin immunoprecipitates resolved by charge and then by non-reducing SDS-PAGE, immunoblot with anti-V5
[2] = target: HLA-B*27:05 class I heavy chain (HC), V5 tagged (human); assay: non-reducing two-dimensional isoelectric focusing gel electrophoresis and immunoblot; 1% NP40 lysates resolved by charge in the first dimension and by non-reducing SDS-PAGE in the second, immunoblot with anti-V5; monomers and dimers compared by pI
[3] = target: HLA-B*27:05 single chain trimer (SCT): NP 383-391 peptide - linker - human beta-2 microglobulin - linker - HLA-B*27:05 heavy chain - V5 (influenza virus | human); assay: non-reducing two-dimensional isoelectric focusing gel electrophoresis and immunoblot of immunoprecipitates; anti-tapasin immunoprecipitates resolved by charge and then by non-reducing SDS-PAGE, immunoblot with anti-V5
[4] = target: HLA-B*27:05 single chain trimer (SCT): NP 383-391 peptide - linker - human beta-2 microglobulin - linker - HLA-B*27:05 heavy chain - V5 (influenza virus | human); assay: non-reducing two-dimensional isoelectric focusing gel electrophoresis and immunoblot; 1% NP40 lysates resolved by charge in the first dimension and by non-reducing SDS-PAGE in the second, immunoblot with anti-V5; monomers and dimers compared by pI

stoichiometry N [1] | stoichiometry N [2] | Substance | stoichiometry N [3] | stoichiometry N [4]
2 | 2 | HLA-B*27:05 class I heavy chain (HC), V5 tagged (natural protein) | – | –
– | – | HLA-B*27:05 single chain trimer (SCT): NP 383-391 peptide - linker - human beta-2 microglobulin - linker - HLA-B*27:05 heavy chain - V5 (from UniProt P61769 21-119) (peptide-MHC) | 2 | 2
